Tests used:
Assay in all cases: cleavage_in_vitro
[1] = tested on: T1, OMNI-123 (metagenomic, unknown); settings: TXTL; PAM NNNSGYAA
T1 sequence: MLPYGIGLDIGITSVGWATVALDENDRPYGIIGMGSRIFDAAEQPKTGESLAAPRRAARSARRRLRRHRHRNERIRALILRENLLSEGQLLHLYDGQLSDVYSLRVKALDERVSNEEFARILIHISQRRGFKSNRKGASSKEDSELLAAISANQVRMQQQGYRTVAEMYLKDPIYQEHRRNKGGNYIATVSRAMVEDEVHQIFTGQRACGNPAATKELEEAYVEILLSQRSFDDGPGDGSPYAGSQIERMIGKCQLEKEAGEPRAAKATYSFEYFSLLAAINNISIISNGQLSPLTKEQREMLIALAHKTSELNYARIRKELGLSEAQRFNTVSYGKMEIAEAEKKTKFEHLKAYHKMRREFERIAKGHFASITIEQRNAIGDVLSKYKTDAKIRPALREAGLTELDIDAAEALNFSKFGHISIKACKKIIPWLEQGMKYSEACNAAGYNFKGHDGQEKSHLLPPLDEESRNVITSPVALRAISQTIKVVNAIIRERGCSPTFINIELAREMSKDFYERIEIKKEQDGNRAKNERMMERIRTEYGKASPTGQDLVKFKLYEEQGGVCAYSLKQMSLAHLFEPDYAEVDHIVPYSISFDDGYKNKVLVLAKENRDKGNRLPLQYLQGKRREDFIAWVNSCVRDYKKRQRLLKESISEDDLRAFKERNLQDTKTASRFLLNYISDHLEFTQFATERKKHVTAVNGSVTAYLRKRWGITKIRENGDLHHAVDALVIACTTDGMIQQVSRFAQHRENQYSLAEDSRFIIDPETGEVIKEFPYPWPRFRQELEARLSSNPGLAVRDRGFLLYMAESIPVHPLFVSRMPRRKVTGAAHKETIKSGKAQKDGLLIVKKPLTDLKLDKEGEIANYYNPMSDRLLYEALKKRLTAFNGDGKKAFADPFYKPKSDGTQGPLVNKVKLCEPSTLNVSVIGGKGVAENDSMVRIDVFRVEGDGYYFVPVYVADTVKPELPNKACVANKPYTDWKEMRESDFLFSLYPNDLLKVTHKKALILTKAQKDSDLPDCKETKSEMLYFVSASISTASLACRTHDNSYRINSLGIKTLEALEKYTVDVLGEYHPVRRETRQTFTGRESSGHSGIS

[2] = tested on: T2, OMNI-125 (metagenomic, unknown); settings: TXTL; PAM NARNCCYN
T2 sequence: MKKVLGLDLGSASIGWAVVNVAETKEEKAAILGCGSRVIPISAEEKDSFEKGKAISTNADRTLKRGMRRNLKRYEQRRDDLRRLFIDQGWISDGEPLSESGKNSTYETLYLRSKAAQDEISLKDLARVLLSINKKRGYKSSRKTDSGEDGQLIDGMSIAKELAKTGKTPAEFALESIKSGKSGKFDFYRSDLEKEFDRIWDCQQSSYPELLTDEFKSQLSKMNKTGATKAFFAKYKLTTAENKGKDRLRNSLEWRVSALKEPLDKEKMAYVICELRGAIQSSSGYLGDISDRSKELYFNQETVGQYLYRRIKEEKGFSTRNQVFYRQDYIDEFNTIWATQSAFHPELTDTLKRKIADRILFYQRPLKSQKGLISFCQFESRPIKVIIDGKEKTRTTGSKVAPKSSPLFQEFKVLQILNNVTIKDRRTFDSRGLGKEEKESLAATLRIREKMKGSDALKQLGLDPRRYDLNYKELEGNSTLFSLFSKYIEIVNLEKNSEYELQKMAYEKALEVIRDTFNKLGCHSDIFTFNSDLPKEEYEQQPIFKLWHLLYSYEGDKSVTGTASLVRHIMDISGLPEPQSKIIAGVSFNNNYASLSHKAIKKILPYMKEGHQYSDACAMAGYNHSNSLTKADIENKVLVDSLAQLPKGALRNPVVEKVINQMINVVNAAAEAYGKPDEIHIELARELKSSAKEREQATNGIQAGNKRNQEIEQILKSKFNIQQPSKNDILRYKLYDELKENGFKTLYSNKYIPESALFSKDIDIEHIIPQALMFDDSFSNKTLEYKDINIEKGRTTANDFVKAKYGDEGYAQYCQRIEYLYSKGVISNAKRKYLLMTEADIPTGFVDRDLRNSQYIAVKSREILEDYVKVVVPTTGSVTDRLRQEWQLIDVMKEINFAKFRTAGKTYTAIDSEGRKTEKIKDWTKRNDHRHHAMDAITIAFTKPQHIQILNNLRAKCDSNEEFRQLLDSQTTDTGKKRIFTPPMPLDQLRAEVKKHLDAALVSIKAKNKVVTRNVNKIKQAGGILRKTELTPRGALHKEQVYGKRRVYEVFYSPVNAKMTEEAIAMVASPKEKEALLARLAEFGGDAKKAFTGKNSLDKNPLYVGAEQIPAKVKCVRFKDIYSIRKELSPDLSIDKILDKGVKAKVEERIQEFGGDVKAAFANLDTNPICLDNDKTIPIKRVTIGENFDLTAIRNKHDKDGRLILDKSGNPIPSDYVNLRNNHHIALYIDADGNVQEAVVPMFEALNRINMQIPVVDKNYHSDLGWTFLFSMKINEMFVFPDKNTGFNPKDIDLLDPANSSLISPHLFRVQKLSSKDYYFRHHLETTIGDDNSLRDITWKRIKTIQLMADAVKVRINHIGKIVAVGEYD

[3] = tested on: OMNI-121 (metagenomic, unknown); settings: TXTL; PAM NNAAAYNN
Chain of OMNI-121 (metagenomic, unknown) (chain, as listed by the source): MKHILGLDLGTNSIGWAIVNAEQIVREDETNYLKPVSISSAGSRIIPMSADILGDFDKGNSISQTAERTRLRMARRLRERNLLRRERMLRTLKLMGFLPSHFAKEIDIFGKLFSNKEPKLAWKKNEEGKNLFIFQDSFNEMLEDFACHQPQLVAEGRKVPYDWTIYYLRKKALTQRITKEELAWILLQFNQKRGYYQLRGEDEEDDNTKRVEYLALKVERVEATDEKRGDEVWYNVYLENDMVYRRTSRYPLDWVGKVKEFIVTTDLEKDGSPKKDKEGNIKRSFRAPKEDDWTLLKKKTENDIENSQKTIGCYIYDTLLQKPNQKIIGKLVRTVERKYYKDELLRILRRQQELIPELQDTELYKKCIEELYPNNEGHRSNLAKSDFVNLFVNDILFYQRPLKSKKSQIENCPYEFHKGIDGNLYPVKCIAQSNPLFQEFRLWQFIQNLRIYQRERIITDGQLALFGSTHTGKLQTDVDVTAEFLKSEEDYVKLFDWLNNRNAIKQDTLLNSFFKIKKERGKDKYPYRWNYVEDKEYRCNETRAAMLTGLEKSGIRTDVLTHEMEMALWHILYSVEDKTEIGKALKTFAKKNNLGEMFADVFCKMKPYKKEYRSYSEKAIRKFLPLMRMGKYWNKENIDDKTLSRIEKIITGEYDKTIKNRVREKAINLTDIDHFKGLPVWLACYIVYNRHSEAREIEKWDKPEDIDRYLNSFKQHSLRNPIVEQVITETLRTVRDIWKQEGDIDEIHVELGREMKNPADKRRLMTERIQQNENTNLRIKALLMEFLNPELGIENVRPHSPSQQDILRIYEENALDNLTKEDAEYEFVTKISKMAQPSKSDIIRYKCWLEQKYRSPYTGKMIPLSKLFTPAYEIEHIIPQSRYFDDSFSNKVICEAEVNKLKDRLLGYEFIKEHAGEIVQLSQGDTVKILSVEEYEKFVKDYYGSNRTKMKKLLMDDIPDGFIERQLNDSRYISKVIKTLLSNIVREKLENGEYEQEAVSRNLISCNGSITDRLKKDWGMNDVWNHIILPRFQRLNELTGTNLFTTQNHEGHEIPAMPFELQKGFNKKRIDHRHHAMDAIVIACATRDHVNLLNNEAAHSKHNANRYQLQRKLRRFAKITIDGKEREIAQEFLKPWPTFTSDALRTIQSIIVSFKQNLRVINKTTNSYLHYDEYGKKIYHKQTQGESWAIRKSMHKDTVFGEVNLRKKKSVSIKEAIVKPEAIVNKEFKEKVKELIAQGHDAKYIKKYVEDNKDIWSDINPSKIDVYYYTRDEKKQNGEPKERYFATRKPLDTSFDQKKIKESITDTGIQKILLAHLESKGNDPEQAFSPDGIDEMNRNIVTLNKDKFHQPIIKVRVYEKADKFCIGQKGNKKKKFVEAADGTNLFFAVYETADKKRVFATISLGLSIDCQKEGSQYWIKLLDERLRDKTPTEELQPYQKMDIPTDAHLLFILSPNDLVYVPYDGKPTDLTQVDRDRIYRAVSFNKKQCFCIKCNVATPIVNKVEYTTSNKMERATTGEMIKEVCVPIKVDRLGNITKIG

[4] = tested on: T3, OMNI-122 (metagenomic, unknown); settings: TXTL; PAM NRYTTTYN
T3 sequence: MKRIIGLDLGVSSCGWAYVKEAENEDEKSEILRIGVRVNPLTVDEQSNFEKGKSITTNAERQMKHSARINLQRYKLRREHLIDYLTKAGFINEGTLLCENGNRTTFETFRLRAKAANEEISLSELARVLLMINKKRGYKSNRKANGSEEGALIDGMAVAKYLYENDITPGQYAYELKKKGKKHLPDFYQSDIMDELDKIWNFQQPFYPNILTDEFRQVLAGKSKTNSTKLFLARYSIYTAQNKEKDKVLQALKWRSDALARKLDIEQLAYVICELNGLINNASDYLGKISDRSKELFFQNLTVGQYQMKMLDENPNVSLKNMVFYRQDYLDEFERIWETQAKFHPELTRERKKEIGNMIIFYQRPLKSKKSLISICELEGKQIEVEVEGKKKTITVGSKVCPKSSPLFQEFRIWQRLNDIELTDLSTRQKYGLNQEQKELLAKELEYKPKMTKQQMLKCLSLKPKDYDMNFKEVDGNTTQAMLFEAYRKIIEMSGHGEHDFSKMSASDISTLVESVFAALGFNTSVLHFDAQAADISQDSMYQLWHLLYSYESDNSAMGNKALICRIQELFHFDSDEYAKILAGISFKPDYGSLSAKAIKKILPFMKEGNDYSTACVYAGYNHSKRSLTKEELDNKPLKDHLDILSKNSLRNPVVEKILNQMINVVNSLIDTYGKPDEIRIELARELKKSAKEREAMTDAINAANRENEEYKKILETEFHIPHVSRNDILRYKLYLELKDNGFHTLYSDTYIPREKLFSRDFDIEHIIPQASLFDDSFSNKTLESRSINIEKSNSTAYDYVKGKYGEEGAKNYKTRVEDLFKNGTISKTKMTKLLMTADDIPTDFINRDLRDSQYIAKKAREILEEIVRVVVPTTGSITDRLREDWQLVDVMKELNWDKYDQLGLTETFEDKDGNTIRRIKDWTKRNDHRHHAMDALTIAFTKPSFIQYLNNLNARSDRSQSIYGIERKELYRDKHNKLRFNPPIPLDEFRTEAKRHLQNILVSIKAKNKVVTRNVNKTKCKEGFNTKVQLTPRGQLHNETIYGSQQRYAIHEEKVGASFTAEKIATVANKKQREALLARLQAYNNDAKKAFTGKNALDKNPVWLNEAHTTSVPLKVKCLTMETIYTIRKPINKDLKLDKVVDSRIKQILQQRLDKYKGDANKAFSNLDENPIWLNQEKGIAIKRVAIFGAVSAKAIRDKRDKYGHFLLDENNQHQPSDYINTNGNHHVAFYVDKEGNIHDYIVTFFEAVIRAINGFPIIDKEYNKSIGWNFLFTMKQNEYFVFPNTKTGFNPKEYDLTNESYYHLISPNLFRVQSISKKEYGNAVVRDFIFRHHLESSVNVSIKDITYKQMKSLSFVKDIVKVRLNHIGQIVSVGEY

[5] = tested on: T4, OMNI-126 (metagenomic, unknown); settings: TXTL; PAM NNNNAARN
T4 sequence: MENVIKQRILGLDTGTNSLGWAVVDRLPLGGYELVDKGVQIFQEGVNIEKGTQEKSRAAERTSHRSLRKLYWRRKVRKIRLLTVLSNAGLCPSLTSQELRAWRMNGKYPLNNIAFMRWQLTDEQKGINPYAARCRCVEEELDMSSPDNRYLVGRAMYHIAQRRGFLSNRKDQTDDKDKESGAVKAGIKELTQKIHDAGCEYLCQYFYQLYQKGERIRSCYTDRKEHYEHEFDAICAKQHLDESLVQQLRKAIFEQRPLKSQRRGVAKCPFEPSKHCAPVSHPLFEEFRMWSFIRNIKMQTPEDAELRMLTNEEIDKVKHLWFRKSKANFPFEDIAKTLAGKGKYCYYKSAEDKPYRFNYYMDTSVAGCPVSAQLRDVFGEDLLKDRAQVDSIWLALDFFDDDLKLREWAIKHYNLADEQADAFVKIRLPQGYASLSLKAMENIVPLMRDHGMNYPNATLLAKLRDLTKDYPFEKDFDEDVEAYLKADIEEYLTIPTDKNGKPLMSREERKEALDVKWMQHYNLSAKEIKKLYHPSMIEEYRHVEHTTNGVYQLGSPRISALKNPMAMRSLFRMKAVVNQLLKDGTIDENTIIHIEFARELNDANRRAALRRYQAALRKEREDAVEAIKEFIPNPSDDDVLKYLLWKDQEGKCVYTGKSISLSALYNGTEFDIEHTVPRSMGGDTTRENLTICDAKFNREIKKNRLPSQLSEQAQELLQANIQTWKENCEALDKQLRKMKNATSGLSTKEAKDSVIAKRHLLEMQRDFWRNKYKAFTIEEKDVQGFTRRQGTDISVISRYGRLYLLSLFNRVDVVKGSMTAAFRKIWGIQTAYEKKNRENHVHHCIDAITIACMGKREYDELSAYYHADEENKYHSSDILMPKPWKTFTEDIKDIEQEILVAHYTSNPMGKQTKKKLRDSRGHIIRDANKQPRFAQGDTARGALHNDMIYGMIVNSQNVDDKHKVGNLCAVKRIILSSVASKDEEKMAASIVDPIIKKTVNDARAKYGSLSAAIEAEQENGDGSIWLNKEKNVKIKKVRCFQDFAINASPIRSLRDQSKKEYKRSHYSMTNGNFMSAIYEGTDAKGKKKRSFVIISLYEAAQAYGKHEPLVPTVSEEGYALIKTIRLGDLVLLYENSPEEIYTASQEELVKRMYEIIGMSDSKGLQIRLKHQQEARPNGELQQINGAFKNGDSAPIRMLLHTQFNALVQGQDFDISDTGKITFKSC

GGAAGAGCAGAGCCUUGGUCUCGUUAUAGUUCCCUGAUAGUGAAAACUAUGAGGUUGCUAUAAUAAGGUAGUAAACCGCAGAGCUCUAACGCCUCACAUUUGUGGGGCGUUAUCUCUUUUUUU / GGAAGAGCAGAGCCTTGGTCTCNNNNNNNN / NNNNNNNNGAGACCAAGGCTCTGCTCTTCC [T2 sgRNA 26 V1 ; T2 protospacer + 8N PAM library (pbPOS T2)]
activity (1-depletion score) [1]: 0.95

GGAAGAGCAGAGCCUUGGUCUCGUUGUGAAUGGCUUUCGAAAUUGAAGCCAUUCACAAUAAGGAUUAUUCCGUUGUGAAAACAUUAAGAGCGGGUCGUGAGACUCGCUCUUCUGUGUUUAUUUUUU / GGAAGAGCAGAGCCTTGGTCTCNNNNNNNN / NNNNNNNNGAGACCAAGGCTCTGCTCTTCC [T2 sgRNA 27 V1 ; T2 protospacer + 8N PAM library (pbPOS T2)]
activity (1-depletion score) [2]: 0.95

GGAAGAGCAGAGCCUUGGUCUCGUUGUGAAUUGCUUGAAAUUCUUGAAAGAAUUUCAGCAAUUCACAAUAAGGAUUAUUCCGUUGUGAAAACAUUCAGGUUCCUGCCCUCGUCCUUUAACGGGGGCUUUUUU / GGAAGAGCAGAGCCTTGGTCTCNNNNNNNN / NNNNNNNNGAGACCAAGGCTCTGCTCTTCC [T2 sgRNA 24 V1 ; T2 protospacer + 8N PAM library (pbPOS T2)]
activity (1-depletion score) [3]: 0.91

GGAAGAGCAGAGCCUUGGUCUCGUUGUGAAUUGCUUUCGAAAGAAGCAAUUCACAAUAAGGAUUAUUCCGUUGUGAAAACAUUUAAGAGAGUCCUUCGUCCUUCGGAGGAUUCUUUUUU / GGAAGAGCAGAGCCTTGGTCTCNNNNNNNN / NNNNNNNNGAGACCAAGGCTCTGCTCTTCC [T2 sgRNA 25 V1 ; T2 protospacer + 8N PAM library (pbPOS T2)]
activity (1-depletion score) [4]: 0.84

GGAAGAGCAGAGCCUUGGUCUCGUUGUGGCUUGUUGAAGAAGAAAUUCUUCAACUUGUCACAAUAAGGCCCUUAAGGCCGAAGGUUGAAAAACCUAUGGCUCUACUUCGGUGGAGCCUUUUUU / GGAAGAGCAGAGCCTTGGTCTCNNNNNNNN / NNNNNNNNGAGACCAAGGCTCTGCTCTTCC [T2 sgRNA 28 V1 ; T2 protospacer + 8N PAM library (pbPOS T2)]
activity (1-depletion score) [5]: 0.64

— patent US20240425885
